B1: 411-J-A1G (ssRNA)
RNA: GGGAGAGAGGAAGAGGGAUGGGGGCCAUGACGAUGUCGUUACGUAGAUGCAGAGACUCCUAACGACGACUCGCUGAGAUCGAGA
B2: 411-J-G7T (ssRNA)
RNA: GGGAGAGAGGAAGAGGGAUGGGAGCCAUUACGAUGUCGUUACGUAGAUGCAGAGACUCCUAACGACGACUCGCUGAGAUCGAGA
B3: 411-J-C28T (ssRNA)
RNA: GGGAGAGAGGAAGAGGGAUGGGAGCCAUGACGAUGUCGUUACGUAGAUGUAGAGACUCCUAACGACGACUCGCUGAGAUCGAGA
B4: 411-J-G30T (ssRNA)
RNA: GGGAGAGAGGAAGAGGGAUGGGAGCCAUGACGAUGUCGUUACGUAGAUGCAUAGACUCCUAACGACGACUCGCUGAGAUCGAGA

These molecules were tested against T1, human IL-10RA-Fc fusion (human, UniProt Q13651 22-235) (assay: filter binding; Double filter binding, 37 C, binding buffer not detailed; selection buffer 20 mM HEPES, 2 mM CaCl2, 0.1 mg/ml BSA, 100-150 mM NaCl, pH 7.5). Settings: protein: commercial; tags: Fc fusion; chain copies: 2; label: 5' 32P.
T1 sequence: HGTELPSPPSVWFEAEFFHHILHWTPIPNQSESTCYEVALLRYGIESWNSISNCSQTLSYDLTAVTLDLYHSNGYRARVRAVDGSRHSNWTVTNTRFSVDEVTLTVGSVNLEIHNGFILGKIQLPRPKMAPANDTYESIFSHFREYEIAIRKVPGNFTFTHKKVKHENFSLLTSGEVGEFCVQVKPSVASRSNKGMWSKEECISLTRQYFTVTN
In the case of B1, the Kd is reported as 9 nM.
Work on B2 yielded a Kd of 18 nM.
Work on B3 yielded a Kd of 18 nM.
In the case of B4, the Kd is reported as 18 nM.

These molecules were tested on human IgG (human) (assay: filter binding). Settings: Double filter binding, 37 C, binding buffer not detailed; selection buffer 20 mM HEPES, 2 mM CaCl2, 0.1 mg/ml BSA, 100-150 mM NaCl, pH 7.5.
With “GGGAGAGAGGAAGAGGGAUGGGAAAGACCGUUUUUUAAAACGCUCAAUAUACACGACAUAAACGACGACUCGCUGAGAUCGAGA [446 (#3)]” the Kd was > 500 nM.
For “GGGAGAGAGGAAGAGGGAUGGGAGCCAUGACGAUGUCGUUACGUAGAUGCAGAGACUCCUAACGACGACUCGCUGAGAUCGAGA [411-J]”, the Kd was > 500 nM.
For “GGGAGAGAGGAAGAGGGAUGGGCGUCUCGUCAAUGCCCUACGUUUGUCUGUGCGACGACUCGCUGAGAUCGAGA [RJB#13]”, the Kd was > 1000 nM.
In the case of “GGGAGAGAGGAAGAGGGAUGGGUGCUCAAUUAAGAACCAUCGCUCUCCGGUGCGACGACUCGCUGAGAUCGAGA [RJB#25]”, the Kd is reported as > 1000 nM.
With “GGGAGAGAGGAAGAGGGAUGGGUGCUCACAAACGUGAACCAUCGUCUUGUGCCGACGACUCGCUGAGAUCGAGA [RJB#23]” the Kd was > 1000 nM.
In the case of “GGGAGAGAGGAAGAGGGAUGGGUGCUCACAUACGUGAACCAUCGUCAAUGGCCGACGACUCGCUGAGAUCGAGA [RJB#10]”, the Kd is reported as > 1000 nM.
For “GGGAGAGAGGAAGAGGGAUGGGUGCUCAUCUUGAACGCAUUGUUUCUCCGUGCGACGACUCGCUGAGAUCGAGA [RJB#31]”, the Kd was > 500 nM.
“GGGAGAGAGGAAGAGGGAUGGGUGCUCCUACUGUGGAACCAUCGUUCUUGUGCGACGACUCGCUGAGAUCGAGA [RJB#17]” was tested, and the Kd was > 1000 nM.
With “GGGAGAGAGGAAGAGGGAUGGGUGCUCGUUUCGAACCAUCGUAACUCCUGUGCGACGACUCGCUGAGAUCGAGA [RJB#161]” the Kd was > 1000 nM.
For “GGGAGAGAGGAAGAGGGAUGGGUGCUUCAUAGAAACGCGCGAUCUUCCUGUGCGACGACUCGCUGAGAUCGAGA [RJB#44]”, the Kd was > 1000 nM.

Same assay, conditions: column inferred from text; Double filter binding, 37 C, binding buffer not detailed; selection buffer 20 mM HEPES, 2 mM CaCl2, 0.1 mg/ml BSA, 100-150 mM NaCl, pH 7.5
For “GGGAGAGAGGAAGAGGGAUGGGAAUCGCUCAGCCGGUCCGGAACUGGCAAAGUCAGGUGCUCCGACGACUCGCUGAGAUCGAGA [405 (cluster E)]”, the Kd was 120 nM.
